US20240361334A1
Values belong to the substance of their own block, whether it stands above or below them.

Columns and labels:
[1] = molecular target: human C1q protein (Sigma-Aldrich #C1740) (human) (UniProt P02745); test: HTRF sandwich, biotin-anti-human Fab 1/SA-d2, Eu-anti-C1q, buffer 2, with 150 nM human TNF-α
[2] = molecular target: human C1q protein (Sigma-Aldrich #C1740) (human) (UniProt P02745); test: HTRF sandwich, biotin-Protein L/SA-d2, Eu-anti-C1q
[3] = molecular target: human C1q protein (Sigma-Aldrich #C1740) (human) (UniProt P02745); test: HTRF sandwich, biotin-anti-human Fab 2/SA-d2, Eu-anti-C1q
[4] = molecular target: human C1q protein (Sigma-Aldrich #C1740) (human) (UniProt P02745); test: HTRF sandwich, biotin-anti-human Fab 1/SA-d2, Eu-anti-C1q, buffer 2
[5] = molecular target: Human myeloma IgG1 purified from human plasma (Sigma-Aldrich #I5154); test: HTRF saturation binding, anti-Fab-d2 on Eu cryptate-IgG
[6] = molecular target: Human myeloma IgG4 purified from human plasma (Sigma-Aldrich #I4764); test: as above
[7] = molecular target: Human myeloma IgG1 purified from human plasma (Sigma-Aldrich #I5154); test: HTRF saturation binding, biotin-anti-Fab/SA-d2 on Eu cryptate-IgG
[8] = molecular target: Human myeloma IgG2 purified from human plasma (Sigma-Aldrich #I5404); test: as above
[9] = molecular target: Human myeloma IgG4 purified from human plasma (Sigma-Aldrich #I4764); test: as above
[10] = molecular target: human C1q protein (Sigma-Aldrich #C1740) (human) (UniProt P02745); test: HTRF sandwich, biotin-anti-human Fab 1/SA-d2, Eu-anti-C1q, buffer 1
[11] = molecular target: human C1q protein (Sigma-Aldrich #C1740) (human) (UniProt P02745); test: HTRF sandwich, 30 nM biotin-anti-human Fab 1/SA-d2, Eu-anti-C1q, buffer 2
[12] = molecular target: human C1q protein (Sigma-Aldrich #C1740) (human) (UniProt P02745); test: HTRF sandwich, 50 nM biotin-anti-human Fab 1/SA-d2, Eu-anti-C1q, buffer 2
[13] = molecular target: human C1q protein (Sigma-Aldrich #C1740) (human) (UniProt P02745); test: HTRF sandwich, biotin-anti-human Fab 1/SA-d2, Tb cryptate-C1q
[14] = molecular target: human C1q protein (Sigma-Aldrich #C1740) (human) (UniProt P02745); test: AlphaLISA sandwich, biotin-anti-human Fab 1/streptavidin donor beads, anti-C1q acceptor beads
[15] = molecular target: human C1q protein (Sigma-Aldrich #C1740) (human) (UniProt P02745); test: HTRF sandwich, 40 nM biotin-anti-human Fab 1/SA-d2, Eu-anti-C1q, buffer 2
[16] = molecular target: human C1q protein (Sigma-Aldrich #C1740) (human) (UniProt P02745); test: HTRF sandwich, biotin-anti-human Fab 1/SA-d2, Eu-anti-C1q, 135 mM NaCl
[17] = molecular target: human C1q protein (Sigma-Aldrich #C1740) (human) (UniProt P02745); test: HTRF sandwich, biotin-anti-human Fab 1/SA-d2, Eu-anti-C1q, 155 mM NaCl
[18] = molecular target: human C1q protein (Sigma-Aldrich #C1740) (human) (UniProt P02745); test: HTRF sandwich, anti-human Fab 2-d2 without streptavidin, Eu-anti-C1q

Adalimumab (+150 nM TNF-α), sequence (P01375 77-233): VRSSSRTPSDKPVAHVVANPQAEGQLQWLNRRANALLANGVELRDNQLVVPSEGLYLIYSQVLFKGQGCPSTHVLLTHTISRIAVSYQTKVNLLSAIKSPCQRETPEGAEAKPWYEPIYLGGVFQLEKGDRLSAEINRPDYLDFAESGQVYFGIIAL

Substance: Adalimumab (+150 nM TNF-α) (from UniProt P01375 77-233)
- EC50 [1]: 4.6 nM
- S/B [1]: 6.9

Substance: Anti-human Fab 1: anti-human IgG Fab, mouse IgG2b, monoclonal antibody, clone 4A11 (ThermoFisher Scientific #SA1-19255)
- Kd [5]: 0.16 nM
- Kd [6]: 0.44 nM
- Kd [7]: 0.2 nM
- Kd [8]: 0.37 nM
- Kd [9]: 0.33 nM

Substance: Atezolizumab (antibody)
- EC50 [10]: 13.2 nM
- EC50 [11]: 7.2 nM
- EC50 [12]: 10.9 nM

Substance: Cetuximab (antibody)
- EC50 [10]: 16.9 nM

Substance: Cetuximab IgG2 isotype (InvivoGen #hegfr-mab2) (from UniProt P01859 1-326) (antibody)
- EC50 [10]: 48 nM

Substance: Human IgG1 Isotype Control Recombinant Antibody (BioLegend #403502)
- EC50 [13]: 13.7 nM
- EC50 [10]: 17.3 nM
- EC50 [14]: 23.7 nM
- S/B [14]: 752

Substance: Human IgG2 Isotype Control Recombinant Antibody (BioLegend #403602)
- EC50 [13]: 73.6 nM
- EC50 [10]: 34 nM
- EC50 [11]: 19.2 nM
- EC50 [15]: 25.7 nM
- EC50 [12]: 30.6 nM

Substance: Ipilimumab (antibody)
- EC50 [10]: 13.2 nM

Substance: Non-fucosylated Rituximab (InvivoGen #hcd20-mab13) (from UniProt P01857 1-330) (antibody)
- EC50 [10]: 16.2 nM

Substance: Non-glycosylated Rituximab (InvivoGen #hcd20-mab12) (antibody)
- EC50 [10]: 25 nM

Substance: Rituximab (antibody)
- EC50 [3]: 11.7 nM
- EC50 [13]: 14.4 nM
- EC50 [10]: 15.5 nM
- EC50 [18]: 24 nM
- EC50 [16]: 15.5 nM
- EC50 [17]: 28.9 nM
- EC50 [14]: 26.8 nM

Substance: Rituximab IgG2 isotype (InvivoGen #hcd20-mab2) (from UniProt P01859 1-326) (antibody)
- EC50 [10]: 38.7 nM
- EC50 [16]: 38.3 nM
- EC50 [17]: 37.6 nM

The next lines start with the values.

- EC50 [2]: 69.8 nM
- EC50 [3]: 8 nM
- EC50 [4]: 7.2 nM
Substance: Adalimumab (antibody)

- Kd [5]: 0.2 nM
- Kd [6]: 0.45 nM
- Kd [7]: 0.26 nM
- Kd [8]: 0.47 nM
- Kd [9]: 0.4 nM
Substance: Anti-human Fab 2: anti-human IgG Fab, mouse IgG2b, monoclonal antibody, clone 2A11 (GeneTex #GTX27497)

- EC50 [10]: 53.3 nM
Substance: Ipilimumab IgG2 isotype (InvivoGen #hctla4-mab2) (from UniProt P01859 1-326) (antibody)

- EC50 [10]: 10.2 nM
- S/B [10]: 1.4
Substance: Non-glycosylated Cetuximab (InvivoGen #hegfr-mab12) (antibody)

- EC50 [10]: 18.6 nM
- EC50 [16]: 18.6 nM
- EC50 [17]: 19.7 nM
- S/B [17]: 1.6
Substance: Obinutuzumab (antibody)
